Results published in USRE47150 (Bayer, dated 2018).
Read-outs that look alike come from different tables or passages of the source.

T1: mouse tissue factor pathway inhibitor (TFPI) (mouse, UniProt O54819 29-289, limits assumed)
T1 construct: bought; also called mTFPI; murine TFPI
T1 sequence (looked up): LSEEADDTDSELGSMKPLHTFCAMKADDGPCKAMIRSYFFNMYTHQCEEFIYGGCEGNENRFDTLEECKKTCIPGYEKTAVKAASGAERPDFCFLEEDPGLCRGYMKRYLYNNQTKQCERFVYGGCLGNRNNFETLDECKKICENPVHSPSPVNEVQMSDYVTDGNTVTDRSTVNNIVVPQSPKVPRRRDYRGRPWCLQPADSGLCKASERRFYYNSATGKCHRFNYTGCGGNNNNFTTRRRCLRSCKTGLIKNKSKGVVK

T2: human tissue factor pathway inhibitor (TFPI) (human, UniProt P10646 29-304, limits assumed)
T2 construct: bought; also called hTFPI; human TFPI
T2 sequence (looked up): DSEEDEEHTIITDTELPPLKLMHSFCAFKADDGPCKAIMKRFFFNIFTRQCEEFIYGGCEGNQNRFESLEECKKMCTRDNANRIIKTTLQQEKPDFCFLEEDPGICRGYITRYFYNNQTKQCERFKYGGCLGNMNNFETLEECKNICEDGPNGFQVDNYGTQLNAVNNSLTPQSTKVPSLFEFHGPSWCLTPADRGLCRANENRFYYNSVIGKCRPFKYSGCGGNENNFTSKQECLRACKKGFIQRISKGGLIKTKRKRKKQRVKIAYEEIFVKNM


Tests used:
[1] = target: T1, mouse tissue factor pathway inhibitor …; assay: SPR, TFPI immobilized
[2] = target: T1, mouse tissue factor pathway inhibitor …; assay: SPR, TFPI immobilized; remark: listed apart in the source
[3] = target: T3, recombinant TFPI of the FXa restoring assay (human, mouse or rat; not specified for Tables 9 and 10); assay: cell-based or functional assay
[4] = target: T3, recombinant TFPI of the FXa restoring …; assay: cell-based or functional assay; remark: listed apart in the source
[5] = target: T2, human tissue factor pathway inhibitor …; assay: SPR, TFPI immobilized
[6] = target: T2, human tissue factor pathway inhibitor …; assay: SPR, TFPI immobilized; remark: listed apart in the source
[7] = target: T2, human tissue factor pathway inhibitor …; assay: competitive ELISA
[8] = target: T1, mouse tissue factor pathway inhibitor …; assay: competitive ELISA
[9] = target: T2, human tissue factor pathway inhibitor …; assay: competitive ELISA; remark: listed apart in the source
[10] = target: T2, human tissue factor pathway inhibitor …; assay: SPR, TFPI immobilized; remark: listed apart in the source
[11] = target: T1, mouse tissue factor pathway inhibitor …; assay: equilibrium ELISA

Row | Binder | Improvement [1] | Kd [1] | koff [1] | kon [1] | KD fold improvement [2] | Kd [2] | koff [2] | kon [2] | IC50, FXa restoring assay [3] | Improvement vs parental, FXa restoring assay [3] | EC50, FXa restoring assay [4] | Improvement vs parental 2A8, FXa restoring assay [4] | KD fold improvement [5] | Kd [5] | koff [5] | kon [5] | Improvement [6] | Kd [6] | variant/HC_K99L [7] | variant/HC_K99L [8] | also measured
1 | 2A8 wild-type Fab (Fab, V domains shown, Fab with c-myc (or HA, or none) and 6xHis tag at the C-terminus of the heavy chain; also called 2A8wt; 2A8 wt) VH: QVQLVESGGGLVQPGGSLRLSCAASGFTFRSYGMSWVRQAPGKGLEWVSSIRGSSSSTYYADSVKGRFTISRDNSKNTLYLQMNSLRAEDTAVYYCARKYRYWFDYWGQGTLVTVSS VL: DIELTQPPSVSVAPGQTARISCSGDNLRNYYAHWYQQKPGQAPVVVIYYDNNRPSGIPERFSGSNSGNTATLTISGTQAEDEADYYCQSWDDGVPVFGGGTKLTVLG | 1 fold | 3.51 nM | 0.00517 s⁻¹ | 1.47e+06 M⁻¹ s⁻¹ | 1 fold | 3.29 nM | 0.0031 s⁻¹ | 940000 M⁻¹ s⁻¹ | 0.7 µg/mL | 1 fold | 7.91 nM | 1 fold | 1 fold | 1.85 nM | 0.0038 s⁻¹ | 2.05e+06 M⁻¹ s⁻¹ | 1 fold | 2.24 nM |  |  | koff [6]: 0.007 s⁻¹; kon [6]: 3.13e+06 M⁻¹ s⁻¹
2 | 2A8-143 (HC S35D+S55R+K99L/LC Y48F+N51V+D91L+V96W) (Fab, V domains shown) VH: QVQLVESGGGLVQPGGSLRLSCAASGFTFRSYGMDWVRQAPGKGLEWVSSIRGSRSSTYYADSVKGRFTISRDNSKNTLYLQMNSLRAEDTAVYYCARLYRYWFDYWGQGTLVTVSS VL: DIELTQPPSVSVAPGQTARISCSGDNLRNYYAHWYQQKPGQAPVVVIFYDVNRPSGIPERFSGSNSGNTATLTISGTQAEDEADYYCQSWLDGVPWFGGGTKLTVLG |  |  |  |  | 48.5 fold |  |  |  |  |  | 0.5 nM | 15.8 fold | 50.9 fold | 0.0364 nM | 0.000105 s⁻¹ | 2.88e+06 M⁻¹ s⁻¹ |  |  | 17.8 ratio | 13.4 ratio | 
3 | 4B7 HC_D62R (Fab, V domains shown, also called 4B7-D62R) VH: QVQLQQSGPGLVKPSQTLSLTCAISGDSVSSNSAAWSWIRQSPGRGLEWLGIIYKRSKWYNRYAVSVKSRITINPDTSKNQFSLQLNSVTPEDTAVYYCARWHSDKHWGFDYWGQGTLVTVSS VL: DIVMTQSPLSLPVTPGEPASISCRSSQSLVFSDGNTYLNWYLQKPGQSPQLLIYKGSNRASGVPDRFSGSGSGTDFTLKISRVEAEDVGVYYCQQYDSYPLTFGQGTKVEIKR | 137 fold | 0.427 nM | 0.00367 s⁻¹ | 8.58e+06 M⁻¹ s⁻¹ |  |  |  |  | 0.058 µg/mL | 25 fold |  |  |  |  |  |  | 191 fold | 0.0582 nM |  |  | variant/wild-type [9]: 32.3 ratio; kd fold improvement against 4B7 [10]: ~50 fold; variant/wild-type [11]: 230 ratio; koff [6]: 0.000165 s⁻¹; kon [6]: 2.83e+06 M⁻¹ s⁻¹

Second part, led by results:

Row | Improvement [1] | Kd [1] | koff [1] | kon [1] | KD fold improvement [2] | Kd [2] | koff [2] | kon [2] | IC50, FXa restoring assay [3] | Improvement vs parental, FXa restoring assay [3] | EC50, FXa restoring assay [4] | Improvement vs parental 2A8, FXa restoring assay [4] | KD fold improvement [5] | Kd [5] | koff [5] | kon [5] | Improvement [6] | Kd [6] | variant/HC_K99L [7] | variant/HC_K99L [8] | Binder | also measured
4 |  |  |  |  | 63.9 fold | 0.0515 nM | 0.000216 s⁻¹ | 4.19e+06 M⁻¹ s⁻¹ |  |  | 1.08 nM | 7.3 fold | 39.6 fold | 0.0467 nM | 0.000154 s⁻¹ | 3.29e+06 M⁻¹ s⁻¹ |  |  | 16.4 ratio | 11.9 ratio | 2A8-216 (HC S31V+I51D+S55R+K99V/LC Y48F+D91L+V96W) (Fab, V domains shown) VH: QVQLVESGGGLVQPGGSLRLSCAASGFTFRVYGMSWVRQAPGKGLEWVSSDRGSRSSTYYADSVKGRFTISRDNSKNTLYLQMNSLRAEDTAVYYCARVYRYWFDYWGQGTLVTVSS VL: DIELTQPPSVSVAPGQTARISCSGDNLRNYYAHWYQQKPGQAPVVVIFYDNNRPSGIPERFSGSNSGNTATLTISGTQAEDEADYYCQSWLDGVPWFGGGTKLTVLG | 
5 |  |  |  |  | 18.5 fold |  |  |  |  |  | 0.44 nM | 18.2 fold | 22 fold | 0.0841 nM | 0.000141 s⁻¹ | 1.68e+06 M⁻¹ s⁻¹ |  |  | 18.8 ratio | 18.7 ratio | 2A8-127 (HC S35D+K99L/LC Y48F+N51V+G56D+V96W) (Fab, V domains shown) VH: QVQLVESGGGLVQPGGSLRLSCAASGFTFRSYGMDWVRQAPGKGLEWVSSIRGSSSSTYYADSVKGRFTISRDNSKNTLYLQMNSLRAEDTAVYYCARLYRYWFDYWGQGTLVTVSS VL: DIELTQPPSVSVAPGQTARISCSGDNLRNYYAHWYQQKPGQAPVVVIFYDVNRPSDIPERFSGSNSGNTATLTISGTQAEDEADYYCQSWDDGVPWFGGGTKLTVLG | 
6 |  |  |  |  | 55.4 fold |  |  |  |  |  | 0.81 nM | 9.7 fold | 53.7 fold | 0.0344 nM | 9.88e-05 s⁻¹ | 2.87e+06 M⁻¹ s⁻¹ |  |  | 19.7 ratio | 17.4 ratio | 2A8-200 (HC S35D+S55R+K99L/LC Y48F+N51V+D91W) (Fab, V domains shown) VH: QVQLVESGGGLVQPGGSLRLSCAASGFTFRSYGMDWVRQAPGKGLEWVSSIRGSRSSTYYADSVKGRFTISRDNSKNTLYLQMNSLRAEDTAVYYCARLYRYWFDYWGQGTLVTVSS VL: DIELTQPPSVSVAPGQTARISCSGDNLRNYYAHWYQQKPGQAPVVVIFYDVNRPSGIPERFSGSNSGNTATLTISGTQAEDEADYYCQSWWDGVPVFGGGTKLTVLG | 
